{"source": "the DeepSol protein solubility set", "data": [{"test": "soluble on expression in E. coli; label from the status in PepcDB or PDB records", "values": [{"sequence": "MSHRKALLIHNGNAANKNIEKALGAVVPVLSHHLDEVIIKQTKKKDHAYHFCRSIDDSVDTVFILGGDGTIHQCINAISALERKPAVGILPGGTSNDFSRVLGIPQNLAKAAEALMAGKKTSVDVCQMNDRYFLNFWGIGLIAETSNQINETEKALLGKISYFTSALRTVSSAASFPMTLKIDGEEIKEEAVMLLVMNGQYIGTNRIPLPDASIEDGLLDVLICRNTNLTALRELMSMEQGSIDRFTGELSYVQASRIEIETDTAKKADMDGEVYTHTPAVIQVLPQHIDMLVPANE", "soluble on expression in E. coli": "soluble"}, {"sequence": "MGSSHHHHHHSSGLVPRGSHMVTGKAFPYVVVTGIAMTTALATDAETTWKLLLDRQSGIRTLDDPFVEEFDLPVRIGGHLLEEFDHQLTRIELRRMGYLQRMSTVLSRRLWENAGSPEVDTNRLMVSIGTGLGSAEELVFSYDDMRARGMKAVSPLTVQKYMPNGAAAAVGLERHAKAGVMTPVSACASGAEAIARAWQQIVLGEADAAICGGVETRIEAVPIAGFAQMRIVMSTNNDDPAGACRPFDRDRDGFVFGEGGALLLIETEEHAKARGANILARIMGASITSDGFHMVAPDPNGERAGHAITRAIQLAGLAPGDIDHVNAHATGTQVGDLAEGRAINNALGGNRPAVYAPKSALGHSVGAVGAVESILTVLALRDQVIPPTLNLVNLDPEIDLDVVAGEPRPGNYRYAINNSFGFGGHNVAIAFGRY", "soluble on expression in E. coli": "soluble"}, {"sequence": "MAHHHHHHMYTWFHTSSHVFFVMEYCSNGDLFTYLNEHGPFAEKKVAEMLFEIIWAIRTCHDKRIAHLDLKPENVLVNHEEKCKLADFGLSAHIGSKHKKKGISHYRGTHDYWSPEQCARHQKKKQNFGEFDQKTDIWTLGILAFELKFGRPPFGSTNEERETVIMNRIQDYHWSQLFCEKMKQDLIDKLSPEFKDFLNLCLDKNPKKRPTAETLIQHPFIFLHNKSRPCIKSYATQPRGKQGPKLSHKGFNEQDGSFLTPIWFHNKG", "soluble on expression in E. coli": "not soluble"}, {"sequence": "MKIDISDILKHSGASLRLDFSESIKINDFIAEDFDFAKPVTFKGTLVNAGGIIKLDGELWADYRAKCSRCLKDIESKMHIDVKENFVEEGSNKTDEEYYTYHGKFLELEKVMIDNIILNLPAKQVCDEACKGYCPKCGADLNNDECKCVNEDIDPRLEVFKNFFTDN", "soluble on expression in E. coli": "soluble"}, {"sequence": "MAHHHHHHMGTLEAQTQGPGSMMETDATAEAAAVAYEDIITRFGAAPITDDLLKRFETVTGTKAHPMLRRGLFYAHRDFEEFLSYYEKGHPIYIYTGRGPSSGALHLGHLLPFIFTKYLQDAFKCYVVIQITDDEKFLRNRSLSYAEVDSYTRENIKDIIACGFDPDKTFIFINSQYLSLKNRYRFSCLVDRMLPISQLRASFGFSNDANVGYAAFPPKQMLPVYSTYFDGLPFTRVPLPVGTGNEDAADAVSTKKASKKTPKKDAVLSPVHVVEELFPDSKRYQKAMCLIASGIEQDPYFRLARDLAPRMGHPKNAYLLGKFLPGLQGSGTKMSASDPNSAIYLTDTPAQIKNKINRYAFSGGRDTEEEHRAFGADLSVDVSVRYLEVFMKDDAELEKLKADYKTGKLLTGEVKATLIGILQGLIKEHAERRDKVDTTMIESFTVKKELQ", "soluble on expression in E. coli": "soluble"}, {"sequence": "MGSDKIHHHHHHMQAKLTKKEFIEWLKTSEGKQFNVDLWYGFQCFDYANAGWKVLFGLLLKGLGAKDIPFANNFDGLATVYQNTPDFLAQPGDMVVFGSNYGAGYGHVAWVIEATLDYIIVYEQNWLGGGWTDRIEQPGWGWEKVTRRQHAYDFPMWFIRPNFKSETAPRSIQSPTQASKKETAKPQPKAVELKIIKDVVKGYDLPKRGGNPKGIVIHNDAGSKGATAEAYRNGLVNAPLSRLEAGIAHSYVSGNTVWQALDESQVGWHTANQLGNKYYYGIEVCQSMGADNATFLKNEQATFQECARLLKKWGLPANRNTIRLHNEFTSTSCPHRSSVLHTGFDPVTRGLLPEDKQLQLKDYFIKQIRVYMDGKIPVATVSNESSASSNTVKPVASAWKRNKYGTYYMEESARFTNGNQPITVRKIGPFLSCPVAYQFQPGGYCDYTEVMLQDGHVWVGYTWEGQRYYLPIRTWNGSAPPNQILGDLWGEIS", "soluble on expression in E. coli": "not soluble"}, {"sequence": "EVVVTGYGDFKKATYTGSASVLNTDKLESLPVVSVAQMMEANIPGLSSVASSSQPGSKATVRVRGIASMNASTEPLYVLDGVPVASRDMSGLSANASAGGLGLIETLNPADIESITVLKDAASASLYGAKGSNGVILI", "soluble on expression in E. coli": "not soluble"}, {"sequence": "MSSEEQDVKIVTSDDVEFIVSPKIANQSKLLADFVVLNQREPIPLKNVTSEIFKKVIEWCEYHAEDIPKPPDNVEEKRTDDIGEWDVEFLKVDKGTLFELVLAATYLDIKGLFNVTCKSIANSIKGKSPEEIRAVFNLGNETNME", "soluble on expression in E. coli": "not soluble"}, {"sequence": "MKSFLVAGCTSDAGKSVVVAGLCRALTRRGLRVAPFKAQNMSNNSAVTPDGGEIGRAQALQAYACGLTPSVDFNPILLKPGSDRTSQLVVRGIATGNVSARSYIEHRTELRKIASESLNSLRERFDVVVCEGAGSPAETNLRATDVANFGLAEECDLPVYIVGDIDRGGVLAHFYGTHQIVDDADRARIKGFVVNKFRGDVSILEPGLQDLEDRLGVPTVAVLPFIHGLWIDAEDSLQSTIGATVGPAAAPLGTQRLRVAAIRLPRVSNATDVEALACEPGVTVTWTVDPDSVAEADLVVIPGSKATLSDLAWLRSTGVADAIMERARSQRPILGICGGFQMMCSHIDDPVESGSTTPVEGLGIFDVDIEFHPEKTLIRHENGGYEVHHGRVERSTEQPWIGNEGARTQSNFGTHRHGYLEDDEARRDFLGTVSTLAQRPGFVVAPATSFEAERNKQLDVIADAIEQHWDLDQLIAALT", "soluble on expression in E. coli": "not soluble"}, {"sequence": "MGSDKIHHHHHHMKVLNLLSAGGIGGIEQLCSNIAKYANYDNTFCFMFEDGQIYKEMKKSGADVISFAECSSKKISKKRWESLCELAEKADIIVTHHCTIALHIYYCALKKRFKNKKFVMTIHSCFDPELNYNYGSWIKNKIAKWNIEEALKISDKIIFVSEAGRRSYLDNFNIDVTKTKVIYNGVEVSAISIDSIKLENNYTRITYIGRVEKIKGLDLFVCALKKLLNDDSNIKVWIIGDGSFRNELEMLVQKLDLTGVIEFTGAKRNIGDYLRKTDLFIYPSTCQEVFGISIVEAMSYGVPCVANNVGGIPEIIENDYNGFITSKTNDDELYKCMYKFIKLDPKLITQMRNNCLLTAEKFSINCTIDNLEKTLKGMM", "soluble on expression in E. coli": "not soluble"}, {"sequence": "QKDFSWNASLLYAFNRNKVKHISVQPSLWDSRISMPTSYPMVGKPLYGIYAYKWAGLNENGDPQVYDAENNVTSGPARDYHALVYCGTTVPIHNASLTNVLRYKGFEFSAMLILDAGHKLRSSNIPSINMSNGRITSTAKGIVDRWTQPGDVTDVPRLLFSNDTENFNTHRTELYRYSDLFVYDASNIRLSNISLAYRVPAHWCKKISLSGARLQFNVENVATFAFDSKANYDLGGKVKPNYVWGLYLNF", "soluble on expression in E. coli": "not soluble"}, {"sequence": "MGSDKIHHHHHHMIIKNRFTDEIEDAYLDYGSPPPEWQTVQNAAESLRSMPTDQLQSSAKSVFDYIRQNMDAILPRISRTTGKPMRYLRLEVDRSLSETGKIVVMDEPMFHDIPQYSVVYPNYQDPVSSLIVPSIFFLLNRVPVIVVPDRYAFLVPSLIYKAFASSGLPSGSFSISNGGIPEGFPSTRYAVSYSTDAMPEAAPGSGTLHADRGGPSMAVVWKDADVDFAAQNLVDSVIERHSIFLRSIVVHDEIFEYFVNRLKDLLPSIVAGDPEDLSTQLGPCASDIDLIRSLNMIAEARRARSIIYSKGPQGNIITPTIINGEITDMDDMVYTPVYILHHASSMEEVFELVSKVGPEALALYSSDSMLFRMVLSRTSAKYIGLNSYPEISYKPPISIPRRGLYL", "soluble on expression in E. coli": "not soluble"}, {"sequence": "MSLQKLVAIEPVSLVLSAEKALYSFADEVVMYSDIPAGDNEIIARIGDADAVLLSYTSQINRYILERCPNVRYIGMCCSLYSPESANVDIRYANERGITVTGIRDYGDEGVIEYVVSELVRCLHGFGQKPWEGIPREITGLKVGIVGLGKSGGMIADAMKFFGADIAYYARSEKKEAGAKGYRFMPLNELLTWSEVVCCCLNKNTVLLHEAEFKALGNRKILFNTGLSPAWDESSFTRWLEEDNLCFCDTLGALGSTALLTHPHVRCMQVSTGRTRQAFDRLSEKVLANLSEYNGEGHHHHHH", "soluble on expression in E. coli": "soluble"}, {"sequence": "AHHHHHHGSSSIEWNEKTFAKFAYLSDPRTKGELVAYVLTKANLKDNKYENTIVIENLKNNARRFIENATMPRISPDGKKIAFMRANEEKKVSEIWVADLETLSSKKILEAKNIRSLEWNEDSRKLLIVGFKRREDEDFIFEDDVPAWFDDLGFFDGEKTTFWIFDTESEEVIEEFEKPRFSSGIWHRDKIVVNVPHREIIPQYFKFWDIYIWEDGKEEKMFEKVSFYAVDSDGERILLYGKPEKKYMSEHNKLYIYDGKEVMGILDEVDRGVGQAKIKDGKVYFTLFEEGSVNLYIWDGEIKPIAKGRHWIMGFDVDEIVVYLKETATRLRELFTWDGEEKQLTDYNDPIFAKLKTFEPVHFRYKSLDLEIDGWYMKPELKEGEKAPVIVFVHGGPKGMYGYYFKYEMQLMAAKGYYIVYVNPRGSNGYSEDFALRVLTRTGLEDFQDILNGIEEFLKLEPQADRERIGITGISYGGYMTNWALTQSDLFKAGISENGISYWLTSYAFSDIGLWFDKEVIGENPLENENFRRLSPLFYAKNVKAPILLIHSLEDYRCPLDQSLMFYHVLKDLGKEAYIAIFKRGAHGHSIRGQPRHRMKRYKLFVEFFERKLKKYEEGFPIEKILKE", "soluble on expression in E. coli": "not soluble"}, {"sequence": "MNAYCLTLNDTNIAIEKKDIKHLHISVCPPDGSVHVSCPLALNDESLRLSLIKRLHWIKEQQQNFLNQNRQSQRGMLERESHYLFGKRYLLKIEHTTKKHFVLQNPKYLILHVHQKTSLENRLKVLENYYRQVLREKIQTCINRYEKILNESIQSFKIQKMKRIWGSCNIAKRALLFNLELAKVPRKGIEYVVVHELLHLKTRHHNEYFRDLLSLYLPNWQRAKASLKETYLERSLEHHHHHH", "soluble on expression in E. coli": "not soluble"}, {"sequence": "MGSDKIHHHHHHAQTPNTLTKKEKKAGWELLFNGKDFSGWRQCNGTAMPANWVIEDNAMKVFTGEGKKPGQGANGDILYQNKKFKNFELSVDWKASKMGNSGIFYYVREVPGKPIYYAAPEVQVLDNVDATDNKLANHLAGSLYDMLPADPKTVNPAGEWNTIVIRVKDGKVTHTQNGKKVVEYTLWSKEWDDLVANSKFKNFPGFTEGISKEGYIGLQDHGYPIWFRNIKIRELK", "soluble on expression in E. coli": "not soluble"}, {"sequence": "AGFKPAPPAGQLGAVIVDPYGNAPLTALVDLDSHVISDVKVTVHGKGEKGVEISYPVGQESLKTYDGVPIFGLYQKFANKVTVEWKENGKVMKDDYVVHTSAIVNNYMDNRSISDLQQTKVIKVAPGFEDRLYLVNTHTFTAQGSDLHWHGEKDKNAGILDAGPATGALPFDIAPFTFIVDTEGEYRWWLDQDTFYDGRDRDINKRGYLMGIRETPRGTFTAVQGQHWYEFDMMGQVLEDHKLPRGFADATHESIETPNGTVLLRVGKSNYRRDDGVHVTTIRDHILEVDKSGRVVDVWDLTKILDPKRDALLGALDAGAVCVNVDLAHAGQQAKLEPDTPFGDALGVGPGRNWAHVNSIAYDAKDDSIILSSRHQGVVKIGRDKQVKWILAPSKGWEKPLASKLLKPVDANGKPITCNENGLCENSDFDFTYTQHTAWISSKGTLTIFDNGDGRHLEQPALPTMKYSRFVEYKIDEKKGTVQQVWEYGKERGYDFYSPITSIIEYQADRNTMFGFGGSIHLFDVGQPTVGKLNEIDYKTKEVKVEIDVLSDKPNQTHYRALLVRPQQMFK", "soluble on expression in E. coli": "soluble"}]}]}
